Test results: patent publication US20070027086A1 (ACTION PHARMA A S, published 2007)
Square brackets hold non-standard residues; d marks the D form. Ends that are not written are not given here.

B1: MS09 (Ser-Ser-Ile-Ile-Ser-His-dPhe-Arg-Trp-Gly-Lys-Pro-Val-NH2) (peptide)
peptide: SSIISH[dF]RWGKPV-NH2
modifications: N-terminus assumed
SMILES: CC[C@H](C)[C@H](NC(=O)[C@H](CO)NC(=O)[C@@H](N)CO)C(=O)N[C@H](C(=O)N[C@@H](CO)C(=O)N[C@@H](Cc1c[nH]cn1)C(=O)N[C@H](Cc1ccccc1)C(=O)N[C@@H](CCCNC(=N)N)C(=O)N[C@@H](Cc1c[nH]c2ccccc12)C(=O)NCC(=O)N[C@@H](CCCCN)C(=O)N1CCC[C@H]1C(=O)N[C@H](C(N)=O)C(C)C)[C@@H](C)CC
notes: Synthetic 13-residue peptide amide; also called MSO9
B2: MS05 (Ser-Ser-Ile-Ile-Ser-His-Phe-Arg-Trp-Gly-Lys-Pro-Val-NH2) (peptide)
peptide: SSIISHFRWGKPV-NH2
modifications: also: trifluoroacetate salt
notes: Synthetic 13-residue peptide amide, obtained as the trifluoroacetate salt; also called MSO5; compound (3)

Tests used:
[1] = molecular target: T1, human MC1-receptor (melanocortin 1 receptor) (human, UniProt Q01726 1-317); assay: cell-based or functional assay
T1 sequence (Q01726 whole entry): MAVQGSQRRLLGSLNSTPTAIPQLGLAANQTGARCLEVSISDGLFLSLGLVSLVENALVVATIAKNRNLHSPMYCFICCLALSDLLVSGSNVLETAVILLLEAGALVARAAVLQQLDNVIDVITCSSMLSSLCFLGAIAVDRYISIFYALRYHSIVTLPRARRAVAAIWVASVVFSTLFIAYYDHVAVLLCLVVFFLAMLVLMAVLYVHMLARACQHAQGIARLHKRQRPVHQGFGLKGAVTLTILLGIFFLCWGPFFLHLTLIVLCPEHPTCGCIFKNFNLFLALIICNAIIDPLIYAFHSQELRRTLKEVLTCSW

[2] = molecular target: T2, native mouse MC1-receptor (MSH-receptor of mouse B16 melanoma cells and of mouse RAW 264.7 cells) (mouse, UniProt Q01727 1-315); assay: competition with 0.2 nM [^125I]NDP-MSH on mouse B16-F1 melanoma cells (native mouse MC1 receptor)
T2 construct: whole, on cells; also called B16 melanoma cell MSH-receptor
T2 sequence (Q01727 whole entry): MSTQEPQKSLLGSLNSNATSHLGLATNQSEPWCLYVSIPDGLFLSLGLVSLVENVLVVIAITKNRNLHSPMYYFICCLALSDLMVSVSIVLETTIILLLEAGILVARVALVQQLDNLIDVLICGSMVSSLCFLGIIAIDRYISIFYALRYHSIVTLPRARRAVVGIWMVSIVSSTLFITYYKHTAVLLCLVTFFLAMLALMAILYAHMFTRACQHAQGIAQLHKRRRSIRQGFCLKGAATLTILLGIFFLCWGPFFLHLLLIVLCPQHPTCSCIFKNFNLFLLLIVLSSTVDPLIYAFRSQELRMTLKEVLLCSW
Experimental: Assays for MSH-receptor binding was done essentially as described (Xia et al., Cancer Letters, 1996, 98, 157-162), in principle according to earlier described methods (Eberle et al., J. Recept. Res. 1991, 11, 311-322). In brief, collected cells were washed with binding buffer (for composition of binding buffer see below) distributed into 96 well plates and sedimented onto the well bottoms by centrifugation. […] After incubation the plates were put on ice, centrifuged and the cells washed with 0.1 ml of ice-cold binding buffer, centrifuged and the binding buffer was sucked off. The finally sedimented and washed cells were then detached from the plates with 0.2 ml of 0.1 N NaOH. Radioactivity was counted by using a Wallac, Wizard automatic gamma counter. The competition data were analysed by law of massaction computer modelling essentially as described (Bergstrom & Wikberg, Acta Pharmacol. Toxicol. 1986, 59, 270-278).

[3] = molecular target: T1, human MC1-receptor (melanocortin 1 …); assay: competition with [^125I]NDP-MSH on COS cells expressing human MC1 receptor; Ki by Cheng-Prusoff
Experimental: (§1) Expression of receptor clones. Human MC1- and MC5-receptor DNAs (Chhajlani and Wikberg 1992; Chhajlani et al., 1993), cloned into the expression vector pRc/CMV (InVitrogen Corp., USA), and human MC3- and human MC4-receptor DNAs (Gantz et al., 1993a & b), cloned into the expression vector pCMV/neo, were used. COS cells were grown and transfected with receptor clones as described (Schiöbth et al. 1995, 1996b). After transfection cells were cultivated for 48 h, detached from the Petri dishes, and used for radioligand binding as described (Schiöth et al. 1995, 1996b).
(§2) Binding studies. […] The competition data were analyzed by fitting it to the logistic function using non-linear regression analysis. The Kᵢ-values were then calculated from the thus obtained IC50-values by using the Cheng and Prusoff equation, essentially as described by Schiöth et al. 1995, 1996b.

human MC3-receptor [4] = molecular target: T3, human MC3-receptor (human, UniProt P41968 1-323); assay: competition with [^125I]NDP-MSH on COS cells expressing human MC3 receptor; Ki by Cheng-Prusoff
T3 construct: whole, on cells
T3 sequence (P41968 whole entry): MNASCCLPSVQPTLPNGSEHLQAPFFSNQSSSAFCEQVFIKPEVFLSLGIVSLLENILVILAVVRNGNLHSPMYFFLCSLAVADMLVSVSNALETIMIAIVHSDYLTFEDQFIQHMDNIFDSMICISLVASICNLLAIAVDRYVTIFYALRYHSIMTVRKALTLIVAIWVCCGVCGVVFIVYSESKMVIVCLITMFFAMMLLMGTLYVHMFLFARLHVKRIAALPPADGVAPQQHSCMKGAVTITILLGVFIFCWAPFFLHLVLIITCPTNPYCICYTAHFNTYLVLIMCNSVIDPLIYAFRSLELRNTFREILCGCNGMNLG
Experimental: as §1, §2

human MC4-receptor = molecular target: T4, human MC4-receptor (human, UniProt P32245 1-332); assay: competition with [^125I]NDP-MSH on COS cells expressing human MC4 receptor; Ki by Cheng-Prusoff
T4 construct: whole, on cells
T4 sequence (P32245 whole entry): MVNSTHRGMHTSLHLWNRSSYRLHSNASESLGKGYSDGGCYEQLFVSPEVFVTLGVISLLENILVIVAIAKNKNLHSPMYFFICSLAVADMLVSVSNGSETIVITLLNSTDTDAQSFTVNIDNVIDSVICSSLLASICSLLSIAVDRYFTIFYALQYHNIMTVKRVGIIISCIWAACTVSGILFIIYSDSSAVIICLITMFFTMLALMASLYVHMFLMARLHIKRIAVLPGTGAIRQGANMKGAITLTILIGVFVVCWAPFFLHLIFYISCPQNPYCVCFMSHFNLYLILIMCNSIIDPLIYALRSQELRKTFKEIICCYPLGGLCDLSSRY
Experimental: as §1, §2

human MC5-receptor = molecular target: T5, human MC5-receptor (human, UniProt P33032 1-325); assay: competition with [^125I]NDP-MSH on COS cells expressing human MC5 receptor; Ki by Cheng-Prusoff
T5 construct: whole, on cells
T5 sequence (P33032 whole entry): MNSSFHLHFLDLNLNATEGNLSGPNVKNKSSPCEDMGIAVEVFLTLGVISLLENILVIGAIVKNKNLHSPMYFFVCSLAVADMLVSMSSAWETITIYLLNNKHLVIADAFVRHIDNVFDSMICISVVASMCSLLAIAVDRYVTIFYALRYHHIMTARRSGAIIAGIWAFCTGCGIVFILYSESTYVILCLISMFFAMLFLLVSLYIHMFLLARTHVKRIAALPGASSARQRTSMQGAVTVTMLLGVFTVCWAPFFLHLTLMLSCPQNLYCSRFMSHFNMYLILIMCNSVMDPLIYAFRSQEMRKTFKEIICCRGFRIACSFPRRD
Experimental: as §1, §2

human MC3-receptor [5] = molecular target: T3, human MC3-receptor; assay: ratio of Ki values, competition with [^125I]NDP-MSH on COS-1 cells expressing human MC receptors
Experimental: as §1, §2

[6] = molecular target: T2, native mouse MC1-receptor (MSH-receptor …); assay: competition with 0.1 nM [^125I]NDP-MSH on mouse RAW 264.7 macrophage cells (native mouse MC1 receptor)
Experimental: MSH-receptor binding was done essentially as described (Xia et al., Cancer Letters, 1996, 98, 157-162), in principle according to earlier described methods (Eberle et al., J. Recept Res. 1991, 11, 311-322). In brief, the collected cells were washed, distributed into 96 well plates and sedimented onto the well bottoms by centrifugation. […] Radioactivity was counted by using a Wallac, Wizard automatic gamma counter. The competition data were analysed by law of massaction computer modelling essentially as described (Bergstrom & Wikberg, Acta Pharmacol. Toxicol. 1986, 59, 270278).

| Binder | % of 10 nM α-MSH (cAMP stimulation, 10 nM) [1] [%] | Fold stimulation of cAMP (10 nM) [1] [fold] | Fold stimulation of cAMP (1 µM) [1] [fold] | Ki [2] [nM] | Ki [3] [nM] | Ki (human MC3-receptor [4]) [nM] | Ki (human MC4-receptor) [nM] | Ki (human MC5-receptor) [nM] | fold lower affinity than for the MC1-receptor (human MC3-receptor [5]) [fold] | Ki [6] [nM] |
| --- | --- | --- | --- | --- | --- | --- | --- | --- | --- | --- |
| B1 | 89 | 5.5 | 7 | 0.06 | 0.2 | 7 | 40 | 120 | – | – |
| B2 | 69 | 4.6 | 6.7 | 1 | 0.76 | 1360 | – | – | 1800 | 1.35 |
